Assay results from doi:10.1101/2023.10.09.561517 (bioRxiv, 2023).
Several values for one entry are separate records, joined by “and”; a condition that tells them apart may be missing. Equal entries are not always repeated.

Key:
[1] = molecular target: CaMKIIα hub domain; test: mass photometry
[2] = molecular target: CaMKIIβ full-length hub domain (residues 534-666) (human); test: crystal structure
[3] = molecular target: CaMKIIβ full-length hub domain (residues 534-666) (human); test: mass photometry
[4] = molecular target: CaMKIIβ full-length hub domain (residues 534-666) (human); test: mass photometry; remark: listed apart in the source
[5] = molecular target: CaMKIIβ full-length hub domain (residues 534-666) (human); test: crystal structure; remark: listed apart in the source
[6] = molecular target: the molecule itself; test: SEC-MALS

CaMKIIα hub domain (domain or fragment) was tested, and the stoichiometry N [1] was 16.

With “CaMKIIβ full-length hub domain (residues 534-666) (domain or fragment)” the stoichiometry N [2] was 14, the stoichiometry N [3] was 14 and 16 and the stoichiometry N [4] was 12 and 14 and 16. It also gave a stoichiometry N [5] of 16.

B1: CaMKIIβ hub dimer variant (F585A + L622M) (domain or fragment, human, UniProt Q13554 534-666, looked up)
chain: RKQEIIKTTEQLIEAVNNGDFEAYAKICDPGLTSFEPEALGNLVEGMDFHRAYFENLLAKNSKPIHTTILNPHVHVIGEDAACIAYIRMTQYIDGQGRPRTSQSEETRVWHRRDGKWQNVHFHCSGAPVAPLQ
B1 was tested, and the “stoichiometry N” value [6] was 2.
